Experimental data as given in US9389182B2 (University of Southern California, priority 2011, dated 2016).

Tests used:
BSA [1] = target: T1, BSA (Bos taurus, UniProt P02769); assay: Blocking of free carboxyl groups on BSA before AMC labeling (SDS-PAGE, native gels, gel fluorescence); design: species or system bovine; settings: 50 mg BSA, 1 h
T1 construct: purchased thermo-Fisher BP1605-100
Experimental: FIG. 2. […] Values are means±SE, n=3. […] Values are means±SE, n=3. […] A silver stain was later performed. (D) N-(3-Dimethylamineopropyl)-N′-ethylcarbodiimide (1 ng/ml to 100 μg/ml) which blocks free carboxyl groups, was incubated with 50 mg of BSA for 1 hr. BSA was extensively dialyzed then prepared as in panel (C). Increasing concentrations of N-(3-Dimethylamineopropyl)-N′-ethylcarbodiimide, caused a progressive decrease in BSA's electrophoretic mobility, and loss of fluorescence at 66 kDa; a representative gel is shown to the left of the panel, and fluorescence is quantified in the graph to the right; […]
For SDS Page gels, samples were mixed with 25% Nupage loading Dye (Invitrogen, Carlsbad, Calif., USA, catalogue#NP0007) containing 5% 2-mercaptoethanol, Samples were boiled for 3 minutes then added to a 12% Tris-glycine SDS page gel. […] In experiments where gel fluorescence was analyzed, gels were placed in a chamber and exposed to an excitation wavelength of 365 nm. […]

BSA [2] = target: T1, BSA; assay: Blocking of exposed amine groups on BSA before AMC labeling; design: species or system bovine; settings: 0.5-50 mM
From the text: (§1) In some experiments samples were pre-treated with either N-(3-Dimethylaminopropyl)-N′-ethylcarbodiimide hydrochloride (Sigma-Aldrich, MO, USA, catalogue#E6383-1G) to block free protein carboxyl groups, with sulfo-N-hydroxysulfosuccinimide-acetate (Pierce, Rockford, Ill., USA, catalogue #26777) to block free protein amino groups, or with tryptamine (Sigma-Aldrich, MO, USA, catalogue#193747-10G) to disrupt potential non-covalent interactions in protein hydrophobic pockets.
To test whether exposed amine groups on the protein might react with the carboxyl group on the fluorophore, we used 0.5-50 mM sulfo-NHS-acetate was used to block exposed amine groups on BSA. […] This implies that the complex formed between AMC and BSA is independent of exposed protein amine groups.

BSA [3] = target: T1, BSA; assay: Tryptamine competition for non-covalent AMC binding sites on BSA; design: species or system bovine; settings: 100 fold excess
From the text: as §1
Another possibility was that AMC might be sequestered in protein hydrophobic pockets by non-covalent interactions. […] The ability of the BSA/AMC complex to function as a substrate for proteolysis was also tested.

Trypsin = assay: Proteolysis of AMC-labeled proteins by trypsin, fluorescence assay (AMC release); format: biochemical; settings: for substrate for proteolysis by trypsin, release of fluorescent AMC: AMC-labeled protein 10 μg/ml, 10 μM trypsin
Experimental: FIG. 3. Proteolysis of AMC-labeled Proteins by Trypsin. […] Values are means±SE's, n=3. […] All assay conditions (including trypsin concentration) were identical to those in A, and each substrate protein was used at a final concentration of 10 μg/ml. […] Values are means±SE's, n=3;
FIG. 4. Protease and Substrate Titration, and Particle Size of Proteolytic Degradation Products. […] Values are means±SE's, n=4, for which the fluorescence of controls was subtracted. […] Background fluorescence or radioactivity were measured in the absence of protease (proteolysis buffer alone), and proteolysis was measured by increased fluorescence or acid-soluble radioactivity after incubation with either 10 μM Trypsin, 1 μg/ml purified 20S proteosome, or 150 μg/ml MEF cell lysate. Percent degradation of Hb-AMC is reported as the percentage of total fluorescence that could be released from Hb-AMC after exhaustive proteolytic digestion (not shown), whereas percent degradation of [3H]Hb is reported as the percent of total (initial) radioactive counts released into TCA-soluble form by proteolysis. All values are means±SE's, n=3;

purified 20S proteasome = target: T2, purified 20S proteasome (Homo sapiens, UniProt P28072+P28074+Q99436); assay: Degradation of native and oxidized AMC-labeled proteins by purified 20S proteasome; format: biochemical; settings: for increase in susceptibility to proteasomal degradation: following mild oxidation with H2O2 (1.0 mM); for substrate for the purified proteasome: unoxidized form
T2 construct: purchased Biomol PW8720-0050
Experimental: (§2) FIG. 7. Proteolytic Susceptibility of Modified AMC-labeled Proteins. (A) The capacity of 20S proteasome to degrade both the native and oxidized forms of Hb-AMC and BSA-AMC was measured. For both assays, 1 μg/ml of purified 20S proteasome was combined with 10 μg/ml of Hb-AMC, Hbox-AMC, BSA-AMC, or BSAox-AMC and incubated for 4 hr at 37° C. Protein degradation was then measured as per FIG. 4. Hbox-AMC, and BSAox were prepared by treating Hb-AMC and BSA-AMC with 1.0 mM H2O2 followed by extensive dialysis. (B) The Capacity of MEF cell lysates to degrade various modified forms of Hb-AMC was measured. Hb-AMC was modified by incubation with dilute HCl at pH 4, 10% 2-mercaptoethanol, 70% methanol, 1 mM peroxynitrite, or 1 mM H2O2, or was boiled at 100° C. for 60 minutes, or subjected to freeze-thawing at −80° C. The substrates were then extensively dialyzed and incubated with 150 μg/ml of MEF cell lysates for 4 hr. In both panels, values are means±SE's, n=3.

[4] = pH stability of the Hb-AMC complex; format: physicochemical; settings: pH 1-12, 4 hr, read after readjusting to pH 7.8
Experimental: The stability of protein-AMC adducts over the same broad range of pH was determined. […] The viability of protein-AMC complexes as substrates for proteases was tested with widely different pH optima.

proteinase K = target: T3, proteinase K (Parengyodontium album, UniProt P06873); assay: Proteolysis of Hb-AMC by proteinase K (AMC release); format: biochemical; settings: pH 11, 4 hr at 37° C.
T3 construct: purchased Oncor S4508
T3 sequence (P06873 106-384): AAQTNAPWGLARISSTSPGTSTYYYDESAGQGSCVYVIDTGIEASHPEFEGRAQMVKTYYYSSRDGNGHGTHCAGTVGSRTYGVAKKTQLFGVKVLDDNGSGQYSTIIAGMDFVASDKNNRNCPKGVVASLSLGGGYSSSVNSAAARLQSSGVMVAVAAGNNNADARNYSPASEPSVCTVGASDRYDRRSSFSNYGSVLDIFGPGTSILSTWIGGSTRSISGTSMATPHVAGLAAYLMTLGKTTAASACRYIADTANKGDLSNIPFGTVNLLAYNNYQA

chymotrypsin = chymotrypsin (Bos taurus, UniProt P00766); assay: Proteolysis of Hb-AMC by chymotrypsin (AMC release); settings: pH 7.8, 4 hr at 37° C.
Experimental: (§3) In each experiment, pH was adjusted appropriately for the proteinase studied, and samples were incubated at 37° C. for 4 hours.

[5] = Stability of Hb-AMC after frozen storage or denaturation (background release of free AMC); format: physicochemical
Experimental: FIG. 5. Stability of AMC-labeled Hemoglobin After Frozen Storage or Denaturation. (A) Hb-AMC was stored at −20° C. for up to 21 weeks. […] Release of free AMC from the Hb-AMC complex (background fluorescence) was then measured in comparison with control (untreated Hb-AMC). In all three panels, values are means±SE's, n=3;
The stability of AMC-labeled substrates, the resistance of the AMC-protein linkage to various treatments, and the reproducibility of proteolytic assays after prolonged storage are important concerns in weighing the usefulness of the technique of various embodiments of the present invention.
Embodiments of the present invention provide a new way to label proteins for studies of oxidation-induced changes in proteolytic susceptibility. In addition to oxidants, proteolytic substrates are often subjected to various other modifying or denaturing conditions, to test for effects on proteolytic susceptibility, therefore it is important to test the stability of AMC-labeled substrates over a range of harsh conditions.

MEF cell lysates = assay: Degradation of modified Hb-AMC by MEF cell lysates; format: biochemical, murine; settings: oxidative modification by H2O2 or peroxynitrite
Experimental: as §2, with “In both panels, values are means±SE's, n=3.” left out
Murine embryonic fibroblasts (MEF) from ATCC (Manassas, Va., USA, catalogue CRL-2214) were grown in Dulbecco's Modified Eagle's Medium (DMEM, Mediatech, Manassas, Va., catalogue #10-013-CV) supplemented with 10% Fetal Bovine Serum (Hyclone, Logan, Utah, catalog #SH30070.03). […] The lysates were then centrifuged at 10,000 g for 10 minutes, after which the supernatants were retained (the pellets discarded) and protein content was determined by BCA assay.

pepsin = pepsin (Sus scrofa, UniProt P00791); assay: Proteolysis of Hb-AMC by pepsin (AMC release); settings: pH 2, 4 hr at 37° C.
Sequence of pepsin (P00791 60-385): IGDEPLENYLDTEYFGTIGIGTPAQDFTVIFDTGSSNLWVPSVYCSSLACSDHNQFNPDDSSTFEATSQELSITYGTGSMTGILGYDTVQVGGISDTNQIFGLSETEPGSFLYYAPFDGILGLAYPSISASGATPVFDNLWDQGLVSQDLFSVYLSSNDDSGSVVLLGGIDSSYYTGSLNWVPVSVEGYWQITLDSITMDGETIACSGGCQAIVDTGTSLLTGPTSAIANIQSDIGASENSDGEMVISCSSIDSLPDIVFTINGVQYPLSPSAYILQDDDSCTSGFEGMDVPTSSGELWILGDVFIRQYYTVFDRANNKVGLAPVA
Experimental: as §3

[6] = stored at −20° C., repeated trials over 150 days

T1 sequence (P02769 25-607): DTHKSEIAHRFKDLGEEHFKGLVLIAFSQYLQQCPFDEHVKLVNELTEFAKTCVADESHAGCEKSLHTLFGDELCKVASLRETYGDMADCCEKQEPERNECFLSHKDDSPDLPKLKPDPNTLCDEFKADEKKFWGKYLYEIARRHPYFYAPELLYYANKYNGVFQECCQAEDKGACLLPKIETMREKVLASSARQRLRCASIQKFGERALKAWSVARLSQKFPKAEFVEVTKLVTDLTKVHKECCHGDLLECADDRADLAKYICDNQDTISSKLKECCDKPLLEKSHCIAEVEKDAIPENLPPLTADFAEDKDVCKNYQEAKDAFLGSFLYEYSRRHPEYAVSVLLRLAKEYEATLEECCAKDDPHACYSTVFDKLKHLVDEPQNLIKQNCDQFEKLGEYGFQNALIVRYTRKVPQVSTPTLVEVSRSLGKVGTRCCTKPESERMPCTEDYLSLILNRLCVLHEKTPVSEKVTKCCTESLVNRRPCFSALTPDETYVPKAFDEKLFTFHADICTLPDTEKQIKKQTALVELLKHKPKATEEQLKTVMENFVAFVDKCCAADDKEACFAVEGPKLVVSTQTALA

In the case of `CCN=C=NCCCN(C)C.Cl` [N-(3-Dimethylaminopropyl)-N′-ethylcarbodiimide hydrochloride], the “protein carboxyl-group blocking, decreased electrophoretic mobility” value (BSA [1]) is reported as “dose-dependent protein carboxyl-group blocking” and the “formation of BSA-AMC adducts, fluorescent band at 66 kDa” value (BSA [1]; then AMC and NaCNBH3) is reported as “prevented the formation of BSA-AMC adducts”.

For `CC(=O)ON1C(=O)CC(S(=O)(=O)O)C1=O` (centres unmarked) [sulfo-NHS-acetate, sulfo-N-hydroxysulfosuccinimide-acetate], the “change in the fluorescence of the BSA-AMC complex” value (BSA [2]) was “no significant change” and the “free amine groups on BSA blocked” value (BSA [2]) was 80%.

With `NCCc1c[nH]c2ccccc12` [tryptamine] the “association between AMC and BSA blocked” value (BSA [3]) was “above 30%” and the “effect on effectiveness of BSA as a proteolytic substrate” value (BSA [3]) was “minimal effects”.

In the case of “BSA-AMC: AMC-labeled bovine serum albumin”, the “substrate for proteolysis by trypsin, release of fluorescent AMC” value (“substrate for proteolysis by trypsin” below) (Trypsin) is reported as “effective and sensitive substrates”, the “increase in susceptibility to proteasomal degradation” value (purified 20S proteasome) is reported as “four” and the “substrate for the purified proteasome” value (purified 20S proteasome) is reported as “rather poor substrates”.

For “Hb-AMC: AMC-labeled hemoglobin, made by reductive labeling with AMC and sodium cyanoborohydride”, the “decrease in stability of the complex” value [4] was less than 0.2%, the substrate for proteolysis (proteinase K) was “excellent substrate” and the substrate for proteolysis (chymotrypsin) was “excellent substrate”. The “substrate for proteolysis by trypsin” value (Trypsin) was “effective and sensitive substrates”, the “increase in AMC liberation after trypsin digestion” value (Trypsin; Hb labeled by full procedure with AMC and NaCNBH3) was 80 fold and the “increase in AMC liberation following incubation with trypsin” value (Trypsin; Hb reacted with AMC alone, no NaCNBH3) was “six”. For the same molecule, the “background AMC release relative to Hb reacted with AMC alone” value (Trypsin; full labeling procedure with NaCNBH3) was “one-sixth”, the substrate for proteolysis (Trypsin; pH 7.8, 4 hr at 37° C.) was “excellent substrate” and the “variation of trypsin-induced release of AMC on storage” value (Trypsin; [6]) was “less than 15%”. The “stability of the complex to modifying or denaturing conditions” value ([5]; 1 mM H2O2, 1 mM peroxynitrite, dilute HCl pH 4, 10% 2-mercaptoethanol, freeze-thawing at −80° C., or 50% methanol) was “almost completely stable”, the “breakdown of the Hb-AMC complex” value ([5]; boiling (100° C.) for 60 minutes) was 3.1% and the “effect of repeated freeze thaw cycles on stability of the complex (background release of free AMC)” value ([5]; repeated −20° C. freeze-thaw cycles) was “did not significantly affect the stability”. The “variation of background AMC release on storage” value [5, 6] was “less than 15%”, the “sensitivity of proteolytic measurement versus [3H]Hb” value (purified 20S proteasome; 1 μg/ml purified 20S proteasome) was “broadly comparable sensitivity” and the “increase in susceptibility to proteasomal degradation” value (purified 20S proteasome) was “more than 300 fold”. For the same molecule, the “substrate for the purified proteasome” value (purified 20S proteasome) was “rather poor substrates”, the “degradation by MEF cell extracts versus unmodified (control) Hb-AMC” value (MEF cell lysates) was “significantly increased” and the substrate for proteolysis (pepsin) was “excellent substrate”.

For “SOD-AMC: AMC-labeled superoxide dismutase”, the “substrate for proteolysis by trypsin” value (Trypsin) was “effective and sensitive substrates”.

B1: catalase: catalase with the AMC fluorophore bound (AMC-labeled catalase) (conjugate, UniProt P00432 2-527, looked up)
Catalase: ADNRDPASDQMKHWKEQRAAQKPDVLTTGGGNPVGDKLNSLTVGPRGPLLVQDVVFTDEMAHFDRERIPERVVHAKGAGAFGYFEVTHDITRYSKAKVFEHIGKRTPIAVRFSTVAGESGSADTVRDPRGFAVKFYTEDGNWDLVGNNTPIFFIRDALLFPSFIHSQKRNPQTHLKDPDMVWDFWSLRPESLHQVSFLFSDRGIPDGHRHMNGYGSHTFKLVNANGEAVYCKFHYKTDQGIKNLSVEDAARLAHEDPDYGLRDLFNAIATGNYPSWTLYIQVMTFSEAEIFPFNPFDLTKVWPHGDYPLIPVGKLVLNRNPVNYFAEVEQLAFDPSNMPPGIEPSPDKMLQGRLFAYPDTHRHRLGPNYLQIPVNCPYRARVANYQRDGPMCMMDNQGGAPNYYPNSFSAPEHQPSALEHRTHFSGDVQRFNSANDDNVTQVRTFYLKVLNEEQRKRLCENIAGHLKDAQLFIQKKAVKNFSDVHPEYGSRIQALLDKYNEEKPKNAVHTYVQHGSHLSAREKANL
modifications: AMC fluorophore label
With B1 the “substrate for proteolysis by trypsin” value (Trypsin) was “effective and sensitive substrates”.
